Source: paper PMC11189300

Tests used:
[1] = target: Mis12C^M3 (human), Q9H081
[2] = target: Mis12C^M4 (human), Q9H081
Mis12C^M4 (human), Q9H081, sequence (Q9H081 whole entry, chain 1 of 4): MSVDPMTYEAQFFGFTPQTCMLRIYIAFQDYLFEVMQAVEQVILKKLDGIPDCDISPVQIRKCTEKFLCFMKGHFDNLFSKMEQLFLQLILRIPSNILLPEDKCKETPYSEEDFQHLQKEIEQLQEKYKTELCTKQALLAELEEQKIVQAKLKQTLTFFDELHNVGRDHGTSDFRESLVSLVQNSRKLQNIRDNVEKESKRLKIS
Mis12C^M4 (human), Q9H081, sequence (Q6P1K2 whole entry, chain 2 of 4, further chain): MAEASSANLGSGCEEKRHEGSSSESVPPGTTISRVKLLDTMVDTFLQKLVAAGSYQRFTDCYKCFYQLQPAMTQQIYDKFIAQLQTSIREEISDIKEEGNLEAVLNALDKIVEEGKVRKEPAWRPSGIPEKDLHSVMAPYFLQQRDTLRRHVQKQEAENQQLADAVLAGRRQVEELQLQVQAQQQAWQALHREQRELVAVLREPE
Mis12C^M4 (human), Q9H081, sequence (Q96IY1 whole entry, chain 3 of 4, further chain): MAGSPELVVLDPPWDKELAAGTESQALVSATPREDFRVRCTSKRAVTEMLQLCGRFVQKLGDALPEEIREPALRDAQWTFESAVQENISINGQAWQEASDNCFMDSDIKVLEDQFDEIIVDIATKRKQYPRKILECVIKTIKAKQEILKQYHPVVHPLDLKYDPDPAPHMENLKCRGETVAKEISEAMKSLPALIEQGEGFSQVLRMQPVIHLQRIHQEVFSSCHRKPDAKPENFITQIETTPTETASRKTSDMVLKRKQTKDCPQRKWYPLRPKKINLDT
Mis12C^M4 (human), Q9H081, sequence (Q9H410 whole entry, chain 4 of 4, further chain): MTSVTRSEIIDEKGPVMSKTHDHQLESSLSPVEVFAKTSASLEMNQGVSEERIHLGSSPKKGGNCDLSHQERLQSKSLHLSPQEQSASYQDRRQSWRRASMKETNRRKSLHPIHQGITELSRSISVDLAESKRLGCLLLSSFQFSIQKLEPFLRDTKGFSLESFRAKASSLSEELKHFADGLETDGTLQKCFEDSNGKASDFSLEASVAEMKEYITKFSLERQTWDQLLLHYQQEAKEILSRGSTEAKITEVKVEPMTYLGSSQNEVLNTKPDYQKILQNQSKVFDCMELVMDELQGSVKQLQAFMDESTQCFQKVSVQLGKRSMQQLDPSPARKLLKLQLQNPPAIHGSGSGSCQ

Mis12C^M3 (human), Q9H081, sequence (Q9H081 whole entry, chain 1 of 4): as the sequence (Q9H081 whole entry, chain 1 of 4) above
Mis12C^M3 (human), Q9H081, sequence (Q6P1K2 whole entry, chain 2 of 4, further chain): as the sequence (Q6P1K2 whole entry, chain 2 of 4, further chain) above
Mis12C^M3 (human), Q9H081, sequence (Q96IY1 whole entry, chain 3 of 4, further chain): as the sequence (Q96IY1 whole entry, chain 3 of 4, further chain) above
Mis12C^M3 (human), Q9H081, sequence (Q9H410 whole entry, chain 4 of 4, further chain): as the sequence (Q9H410 whole entry, chain 4 of 4, further chain) above

kinetochore levels of endogenous Ndc80C (NDC80^HEC1 immunofluorescence) in HeLa cells depleted of endogenous Mis12C and electroporated with the mutant Mis12C [1]: 50 % reduction
kinetochore levels of endogenous Ndc80C (NDC80^HEC1 immunofluorescence) in HeLa cells depleted of endogenous Mis12C and electroporated with the mutant Mis12C [2]: 50 % reduction
B1: Ndc80 complex (Ndc80C): NDC80^HEC1, NUF2, SPC24, SPC25, O14777 1-642; Q9BZD4 1-464; Q8NBT2 1-197; Q9HBM1 1-224 (complex)
chain 1: MKRSSVSSGGAGRLSMQELRSQDVNKQGLYTPQTKEKPTFGKLSINKPTSERKVSLFGKRTSGHGSRNSQLGIFSSSEKIKDPRPLNDKAFIQQCIRQLCEFLTENGYAHNVSMKSLQAPSVKDFLKIFTFLYGFLCPSYELPDTKFEEEVPRIFKDLGYPFALSKSSMYTVGAPHTWPHIVAALVWLIDCIKIHTAMKESSPLFDDGQPWGEETEDGIMHNKLFLDYTIKCYESFMSGADSFDEMNAELQSKLKDLFNVDAFKLESLEAKNRALNEQIARLEQEREKEPNRLESLRKLKASLQGDVQKYQAYMSNLESHSAILDQKLNGLNEEIARVELECETIKQENTRLQNIIDNQKYSVADIERINHERNELQQTINKLTKDLEAEQQKLWNEELKYARGKEAIETQLAEYHKLARKLKLIPKGAENSKGYDFEIKFNPEAGANCLVKYRAQVYVPLKELLNETEEEINKALNKKMGLEDTLEQLNAMITESKRSVRTLKEEVQKLDDLYQQKIKEAEEEDEKCASELESLEKHKHLLESTVNQGLSEAMNELDAVQREYQLVVQTTTEERRKVGNNLQRLLEMVATHVGSVEKHLEEQIAKVDREYEECMSEDLSENIKEIRDKYEKKATLIKSSEE
chain 2: METLSFPRYNVAEIVIHIRNKILTGADGKNLTKNDLYPNPKPEVLHMIYMRALQIVYGIRLEHFYMMPVNSEVMYPHLMEGFLPFSNLVTHLDSFLPICRVNDFETADILCPKAKRTSRFLSGIINFIHFREACRETYMEFLWQYKSSADKMQQLNAAHQEALMKLERLDSVPVEEQEEFKQLSDGIQELQQSLNQDFHQKTIVLQEGNSQKKSNISEKTKRLNELKLSVVSLKEIQESLKTKIVDSPEKLKNYKEKMKDTVQKLKNARQEVVEKYEIYGDSVDCLPSCQLEVQLYQKKIQDLSDNREKLASILKESLNLEDQIESDESELKKLKTEENSFKRLMIVKKEKLATAQFKINKKHEDVKQYKRTVIEDCNKVQEKRGAVYERVTTINQEIQKIKLGIQQLKDAAEREKLKSQEIFLNLKTALEKYHDGIEKAAEDSYAKIDEKTAELKRKMFKMST
chain 3: MAAFRDIEEVSQGLLSLLGANRAEAQQRRLLGRHEQVVERLLETQDGAEKQLREILTMEKEVAQSLLNAKEQVHQGGVELQQLEAGLQEAGEEDTRLKASLLQLTRELEELKEIEADLERQEKEVDEDTTVTIPSAVYVAQLYHQVSKIEWDYECEPGMVKGIHHGPSVAQPIHLDSTQLSRKFISDYLWSLVDTEW
chain 4: MVEDELALFDKSINEFWNKFKSTDTSCQMAGLRDTYKDSIKAFAEKLSVKLKEEERMVEMFLEYQNQISRQNKLIQEKKDNLLKLIAEVKGKKQELEVLTANIQDLKEEYSRKKETISTANKANAERLKRLQKSADLYKDRLGLEIRKIYGEKLQFIFTNIDPKNPESPFMFSLHLNEARDYEVSDSAPHLEGLAEFQENVRKTNNFSAFLANVRKAFTATVYN
